Assay [1] concerns the target chicken nesfatin-1 (chicken (Gallus gallus)). Nature of the assay: AUC; sedimentation velocity, 20 °C, 50,000 rpm, buffer B1 (20 mM Tris-HCl pH 7.5, 150 mM NaCl) with 500 µM ZnCl2; gN1 at 0.7, 1.0, 1.3 mg/ml; c(s) model.
Assay [2] shares this target. Nature of the assay: AUC; sedimentation velocity, 20 °C, 50,000 rpm, buffer B1 (20 mM Tris-HCl pH 7.5, 150 mM NaCl) with 50 µM Zn(II); gN1/2 at 0.92, 1.32, 1.85 mg/ml, gN1 (Table S1); c(s) model.
For assay [3], the target named is chicken nesfatin-1/2 (nesfatin-1 and nesfatin-2 conjoined in a head-to-tail manner) (chicken (Gallus gallus)). The description is as above.

In general, stoichiometry N refers to the number of molecules, sites or subunits per partner or assembly.

In assay [1], chicken nesfatin-1 (peptide) yielded a relative abundance of the second sedimenting species (2.59 S) at 1.0 mg/ml, 500 µM Zn(II) of 51%; a relative abundance of the second sedimenting species (2.60 S) at 0.7 mg/ml, 500 µM Zn(II) of 44%; a relative abundance of the second sedimenting species (2.63 S) at 1.3 mg/ml, 500 µM Zn(II) of 51%; a stoichiometry N of 2. The substance further yielded a relative abundance of the second sedimenting species (2.16 S), 50 µM Zn(II) in assay [2] of 17%.
As for “chicken nesfatin-1/2 (nesfatin-1 and nesfatin-2 conjoined in a head-to-tail manner) (domain or fragment)”, in assay [3], the relative abundance of the second sedimenting species (3.43 S) at 1.85 mg/ml, 50 µM Zn(II) came to 13%; the relative abundance of the second sedimenting species (3.49 S) at 0.92 mg/ml, 50 µM Zn(II) came out at 13%; the relative abundance of the second sedimenting species (3.64 S) at 1.32 mg/ml, 50 µM Zn(II) came to 15%; the stoichiometry N amounted to 2.

These data come from article PMC11134965.
